Source: patent publication CN111471109A (SHENZHEN INST OF ADV TECH CAS, dated 2020)

Target: T1, FGFR4蛋白 (成纤维细胞生长因子受体4, recombinant protein antigen bought from 义翘神州 / Sino Biological) (human, UniProt P22455 22-369, limits assumed)
T1 construct: In the Western blot the protein was boiled and denatured; also called FGFR4蛋白抗原; fibroblast growth factor receptor 4
T1 sequence (looked up): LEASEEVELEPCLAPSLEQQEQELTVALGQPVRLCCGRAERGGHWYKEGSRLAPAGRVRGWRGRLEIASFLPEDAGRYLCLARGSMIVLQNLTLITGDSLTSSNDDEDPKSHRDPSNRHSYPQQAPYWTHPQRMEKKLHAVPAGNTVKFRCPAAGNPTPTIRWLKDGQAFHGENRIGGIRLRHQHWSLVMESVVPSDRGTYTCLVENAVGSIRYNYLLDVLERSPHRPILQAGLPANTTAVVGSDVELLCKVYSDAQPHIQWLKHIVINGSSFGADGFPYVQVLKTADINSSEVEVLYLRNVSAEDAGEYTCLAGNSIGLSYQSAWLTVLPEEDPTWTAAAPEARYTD
Test: BLI (OCTET K2), FGFR4 protein 10 μg/ml loaded on AHC (Anti-hIgG Fc Capture) sensors, 6G12F5 in solution at 8.84-566.7 nM

Kd: < 1 pM
B1: 6G12F5抗体 (抗FGFR4的单克隆抗体6G12F5) (antibody, V domains shown)
VH: EVMLVESGGGLVKPGGSLKLSCAVSGFTFRNYAMSWVRQSPEKRLEWVAEISNGGRYIYYPDTVTGRFTISRDNAKNTLYLEMSSLRSEDTAMYYCVRGGEKTSGYVWFAYWGEGTLVTVG
VL: DIQMTQTPASLSASVEETVTITCRASENIYSYLAWYQQKQGRSPQLLLYNAKTLAEGVPSRFSGSGSGTQFSLKINSLQPEDFGIYYCQHFSGTPYTFGEGTKLEIT
notes: Mouse hybridoma monoclonal antibody (BALB/c), purified from ascites on Protein G and detected with anti-mouse IgG; also called FGFR4单克隆抗体; FGFR4抗体
